In US20180215804A1:

How the values were obtained:
[1] = biological target: CD28-Fc (human) (UniProt P10747); assay: not stated at that place; binding to human CD28 (SPR with CD28-Fc is the only affinity experiment of the filing)
[2] = biological target: CD28/GFP fusion protein on transfected HEK293T cells (UniProt P10747); assay: competition: flow cytometry contour plot, CD28/GFP cells co-incubated with B7-2/Cherry cells in the presence of p2TA at 1 µg ml-1 (16.0 % without peptide, Fig. 6D)
[3] = biological target: CD28/GFP fusion protein on transfected HEK293T cells (UniProt P10747); assay: competition: flow cytometry contour plot, CD28/GFP cells co-incubated with B7-2/Cherry cells in the presence of p2TA at 0.3 µg ml-1 (16.0 % without peptide, Fig. 6D)
[4] = biological target: CD28/GFP fusion protein on transfected HEK293T cells (UniProt P10747); assay: flow cytometry contour plot, CD28/GFP cells co-incubated with B7-2C/Cherry cells, no peptide (negative control)

Row | percent double labeled cells (upper right quadrant) [4] [%] | Substance | Kd [1] [µM] | percent double labeled cells (upper right quadrant) at 1 µg ml-1 p2TA [2] [%] | percent double labeled cells (upper right quadrant) at 0.3 µg ml-1 p2TA [3] [%]
1 |  | (D-Ala)-p2TA-(D-Ala) (peptide) | 2 | 8.1 | 10.3
2 | 1.5 | B7-2C/Cherry fusion protein on transfected HEK293T cells (from UniProt P42081 24-329) (ligand) |  |  | 
